# Molecular target: PABPC1-GST (Poly(A) binding protein) (UniProt P11940 P11940:1-636)
# Assay: pulldown; 10 mM Tris pH 7.5, 2.5 mM MgCl2, 10 mM KCl, 15% glycerol, tRNA, 4 C; also with UV crosslinking (FIG. 17)
# Details: tags: GST; label: 3'-biotin-PEG12-alkane-cytidine
# Description: Poly(A)₂₅ RNA was labeled using biotin-PEG₁₂-alkane-3′5′-bisphosphate cytidine and T4 RNA ligase. The Poly(A) Binding Protein (PABP), which binds the poly(A) tracts of mRNA, was cloned into a vector containing a GST-tag and expressed in a human cell-free in vitro translation (IVT) system. The lysate was diluted 1:10 for use in the binding reaction. The labeled RNA (50 pmol) was incubated with streptavidin magnetic beads (0.5 mg) for thirty minutes in 20 mM Tris-HCl (7.5), 100 mM NaCl, 1 mM EDTA. After washing, the beads were then incubated with 2-3 μl of diluted IVT lysate cell lysate in Binding Buffer (10 mM Tris-HCl, pH 7.5, 2.5 mM MgCl₂, 10 mM KCl, 15% glycerol, 0.5% Tween-20, and 10 μg tRNA) for one hour at 4° C. An unrelated RNA was used as a negative control, and beads were incubated with lysate alone to assess background. […] After separation by electrophoresis, PABP was detected using PABP antibody.
# Synthetic RNA (50 pmol/reaction) was end-labeled using a twenty-fold excess of Biotin-PEG₁₂-Alkane-3′5′-Bisphosphate Cytidine with T4 RNA ligase. […] Normalized samples were separated by electrophoresis, transferred, and detected using PABPC1, GST (SNRPA1) antibodies (1:1000 dilution in TBST-0.5% BSA). […]
# PABPC1-GST (Poly(A) binding protein), sequence (P11940 whole entry, one chain of several): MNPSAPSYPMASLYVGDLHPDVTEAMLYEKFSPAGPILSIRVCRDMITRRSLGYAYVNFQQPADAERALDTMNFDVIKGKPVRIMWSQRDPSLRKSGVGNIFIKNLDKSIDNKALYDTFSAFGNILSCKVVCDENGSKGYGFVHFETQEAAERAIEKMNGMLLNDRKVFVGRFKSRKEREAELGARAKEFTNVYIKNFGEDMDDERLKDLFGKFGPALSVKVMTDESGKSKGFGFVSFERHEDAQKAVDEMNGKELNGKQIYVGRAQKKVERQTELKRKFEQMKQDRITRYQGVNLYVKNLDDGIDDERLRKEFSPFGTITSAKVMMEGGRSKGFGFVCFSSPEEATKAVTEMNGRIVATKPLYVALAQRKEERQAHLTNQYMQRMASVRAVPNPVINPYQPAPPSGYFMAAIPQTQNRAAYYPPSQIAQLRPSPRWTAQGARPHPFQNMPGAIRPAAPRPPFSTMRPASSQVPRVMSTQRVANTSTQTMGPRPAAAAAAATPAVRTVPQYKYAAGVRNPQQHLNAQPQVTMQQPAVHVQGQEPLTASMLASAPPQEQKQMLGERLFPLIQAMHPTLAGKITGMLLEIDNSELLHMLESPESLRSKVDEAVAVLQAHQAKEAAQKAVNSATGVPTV
binder,measurement,value
"AAAAAAAAAAAAAAAAAAAAAAAAA (ssRNA) [Poly(A)25 RNA, biotin-PEG12]",binding result,binds
